Assay results from US9433687B2, “Anti-Notch3 antibodies and antibody-drug conjugates” (Pfizer Inc., priority 2012, dated 2016).

Columns and labels:
[1] = target: T1, cell surface Notch3 on HCC2429 cells (Homo sapiens, UniProt Q9UM47); assay: Cell-based ELISA, HCC2429 cells; conditions: Table 29; LB = lacked binding
T1 construct: endogenous Notch3 expressing cell lines, HCC2429 and MDA-MB-468; endogenous in cells; host or cells: HCC2429
Protocol: Unconjugated anti-Notch3 antibodies, anti-Notch3 ADCs and a negative control antibody (huNeg8.8) were screened for cell surface binding activity to Notch3 expressing cell lines in a cell-based ELISA. Over-expressing Notch3 cell line, U2OS/hNotch3, and endogenous Notch3 expressing cell lines, HCC2429 and MDA-MB-468, were plated at 50,000, 200,000 and 100,000 cells/well, respectively, in 96 well plates (white opaque, BD/VWR) the day before ELISA assay. On the day of the ELISA, culture media was removed from wells and serially diluted (1:3 in DPBS with calcium chloride and magnesium chloride (Ca/Mg) and 1% BSA) antibody and ADC solutions were applied to the plate. Plates were incubated at room temperature for 2 hours before washed with DPBS with Ca/Mg and 1% BSA. HRP-conjugated secondary antibody was then applied and incubated with cells for 1 hour. Plates were washed with DPBS with Ca/Mg and 1% BSA before being developed with Pico-Chemiluminescent developing kit (Thermal Scientific), and chemiluminescence measurements were performed per manufacturer's instructions. Data plotting and analyses were performed with Microsoft Excel and Graphpad-Prism software.
Unconjugated cysteine mutant humanized anti-Notch3 antibodies were screened for cell surface binding activity to Notch3 expressing cell lines in a cell-based ELISA, as described in previous Examples. […]

HCC2429 lung xenografts = assay: HCC2429 lung xenograft model (unconjugated antibodies); type: in vivo, mouse; conditions: for tumor volume (mm^3 ± SEM): iv Q4dx4
Protocol: Additional in vivo experiments were performed with the HCC2429 lung cancer cell line using an unconjugated rat-human chimeric anti-Notch3 antibody, ch75-hIgG1, to determine whether ch75-hIgG1's Notch3 signaling inhibition contributed to the observed potency of the anti-Notch3 hu75-ADCs. To generate xenografts, nude (Nu/Nu) female mice were implanted subcutaneously with 3.5×10^6 HCC2429 cells in 50% Matrigel (BD Biosciences).
The HCC2429 lung model was dosed intravenously Q4d×4 with PBS vehicle, rat-human chimeric anti-Notch3 antibody, ch75-hIgG1, and humanized anti-Notch1 antibody, hu438 VH1.1/VL1.8, at the does provided in Table 22. From 8 animals, mean tumor masses (±SEM) for each treatment group were calculated and compared to the control PBS vehicle group. P-values based on analysis of variance (ANOVA) were calculated to determine statistical significance of observed growth inhibition of anti-Notch treatments versus control PBS using Excel built-in statistical functions. Percent (%) growth inhibition values were calculated from measurements on the final day of the study for drug-treated compared with vehicle-treated mice with the formula 100*{1−[(TreatedDay 14−TreatedDay 0)/(ControlDay 14−ControlDay 0)]}.

T1 sequence (Q9UM47 40-2321): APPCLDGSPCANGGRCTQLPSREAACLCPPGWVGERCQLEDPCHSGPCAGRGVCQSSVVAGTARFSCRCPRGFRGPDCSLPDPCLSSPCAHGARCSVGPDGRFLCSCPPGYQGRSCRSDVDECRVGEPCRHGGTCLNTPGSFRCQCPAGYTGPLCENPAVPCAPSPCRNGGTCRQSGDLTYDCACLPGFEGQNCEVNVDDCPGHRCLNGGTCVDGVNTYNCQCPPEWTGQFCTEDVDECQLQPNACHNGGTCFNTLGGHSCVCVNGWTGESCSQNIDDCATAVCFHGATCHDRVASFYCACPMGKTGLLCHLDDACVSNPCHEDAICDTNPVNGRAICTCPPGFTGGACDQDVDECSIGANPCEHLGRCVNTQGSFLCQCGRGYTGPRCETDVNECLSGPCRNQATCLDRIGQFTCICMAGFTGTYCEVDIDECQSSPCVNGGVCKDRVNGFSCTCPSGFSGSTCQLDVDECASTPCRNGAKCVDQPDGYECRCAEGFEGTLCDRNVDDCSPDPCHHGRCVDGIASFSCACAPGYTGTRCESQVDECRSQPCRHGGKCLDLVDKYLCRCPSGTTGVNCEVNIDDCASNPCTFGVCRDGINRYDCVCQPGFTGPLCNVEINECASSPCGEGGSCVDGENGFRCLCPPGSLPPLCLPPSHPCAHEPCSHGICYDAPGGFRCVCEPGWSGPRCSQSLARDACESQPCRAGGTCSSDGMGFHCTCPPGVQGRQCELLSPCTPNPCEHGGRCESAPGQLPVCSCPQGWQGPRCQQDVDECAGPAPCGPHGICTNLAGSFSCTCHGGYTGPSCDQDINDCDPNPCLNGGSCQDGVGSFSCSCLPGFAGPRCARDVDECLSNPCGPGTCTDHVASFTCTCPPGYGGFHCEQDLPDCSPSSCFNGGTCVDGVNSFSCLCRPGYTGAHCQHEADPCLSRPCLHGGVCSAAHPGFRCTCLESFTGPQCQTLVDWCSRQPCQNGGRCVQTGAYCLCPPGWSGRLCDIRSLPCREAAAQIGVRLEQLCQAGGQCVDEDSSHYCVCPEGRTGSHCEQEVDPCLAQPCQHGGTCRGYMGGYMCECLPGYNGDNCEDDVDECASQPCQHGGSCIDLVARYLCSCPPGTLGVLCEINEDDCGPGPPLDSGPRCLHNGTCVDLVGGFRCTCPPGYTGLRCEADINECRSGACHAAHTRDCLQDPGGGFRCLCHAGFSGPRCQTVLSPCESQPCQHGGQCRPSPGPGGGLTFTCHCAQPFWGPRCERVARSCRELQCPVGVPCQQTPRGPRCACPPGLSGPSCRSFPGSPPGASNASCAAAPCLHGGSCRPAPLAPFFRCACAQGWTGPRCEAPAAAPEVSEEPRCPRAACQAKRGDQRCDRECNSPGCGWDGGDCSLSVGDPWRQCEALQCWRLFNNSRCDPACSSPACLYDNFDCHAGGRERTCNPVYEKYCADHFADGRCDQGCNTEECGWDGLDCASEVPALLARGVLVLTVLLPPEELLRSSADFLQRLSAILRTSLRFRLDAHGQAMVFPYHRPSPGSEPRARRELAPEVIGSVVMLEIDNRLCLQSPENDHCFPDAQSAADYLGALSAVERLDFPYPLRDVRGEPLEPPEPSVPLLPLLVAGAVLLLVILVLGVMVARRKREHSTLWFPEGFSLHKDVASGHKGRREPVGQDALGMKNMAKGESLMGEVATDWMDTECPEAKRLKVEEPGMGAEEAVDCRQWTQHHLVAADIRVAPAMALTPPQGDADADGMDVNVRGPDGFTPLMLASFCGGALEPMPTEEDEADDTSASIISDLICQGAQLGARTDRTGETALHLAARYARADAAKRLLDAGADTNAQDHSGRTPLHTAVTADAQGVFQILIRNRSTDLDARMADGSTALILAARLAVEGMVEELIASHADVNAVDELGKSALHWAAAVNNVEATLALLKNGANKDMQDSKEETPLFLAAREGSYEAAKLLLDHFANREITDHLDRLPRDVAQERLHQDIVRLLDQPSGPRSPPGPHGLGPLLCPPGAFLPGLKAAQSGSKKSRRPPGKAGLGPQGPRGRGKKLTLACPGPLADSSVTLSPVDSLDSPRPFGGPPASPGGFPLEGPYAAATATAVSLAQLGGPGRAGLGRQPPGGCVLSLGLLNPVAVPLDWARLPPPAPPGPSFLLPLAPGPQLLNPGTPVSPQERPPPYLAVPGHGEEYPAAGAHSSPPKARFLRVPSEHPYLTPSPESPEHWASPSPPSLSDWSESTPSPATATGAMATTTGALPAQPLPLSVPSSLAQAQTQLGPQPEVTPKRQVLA

Row | EC50 [1] [nM] | Molecule | tumor volume (mm^3 ± SEM) (HCC2429 lung xenografts; Day 0, dose not given) [mm^3] | tumor volume (mm^3 ± SEM) (HCC2429 lung xenografts; Day 3) [mm^3] | tumor volume (mm^3 ± SEM) (HCC2429 lung xenografts; Day 5) [mm^3] | tumor volume (mm^3 ± SEM) (HCC2429 lung xenografts; Day 7) [mm^3] | tumor volume (mm^3 ± SEM) (HCC2429 lung xenografts; Day 10) [mm^3] | tumor volume (mm^3 ± SEM) (HCC2429 lung xenografts; Day 12) [mm^3] | tumor volume (mm^3 ± SEM) (HCC2429 lung xenografts; Day 14) [mm^3] | tumor growth inhibition compared to PBS vehicle (HCC2429 lung xenografts; final day of the study (Day 14))
1 | 0.1 | hu28 VH1.0/VL1.0: humanized r28 variant VH1.0/VL1.0, anti-Notch3 antibody (VH SEQ ID NO: 13, VL SEQ ID NO: 25) (antibody, V domains shown) VH: EVQLVESGGGLVQPGGSLRLSCAASGFTFRDYGMTWVRQAPGKGLEWVAYISSGSNYIYYAEAVKGRFTISRDNAKNSLYLQMNSLRAEDTAVYYCARRGPFVLDAWGQGTLVTVSS VL: DIQMTQSPSSLSASVGDRVTITCKASQSINRYLHWYQQKPGKAPKLLIYNANGLQTGVPSRFSGSGSGTDFTLTISSLQPEDFATYYCLQHNTWPDTFGGGTKVEIK |  |  |  |  |  |  |  | 
2 |  | ch75: rat-human chimeric anti-Notch3 antibody 75, rat variable regions fused with human IgG1 and human kappa (antibody, V domains shown) VH: QVKLLQSGAALVKPGASVKMSCKASGYAFTDYWVTWVKQSHGKSLEWIGEISPNSGGTNFNEKFKGKATLTVDKSTSTAYMELSRLTSEDSAIYYCTRGEIRYNWFAYWGQGTLVTVSS VL: NIVMTQSPKSMSISVGDRVTMNCKASQNVGNNIAWYQQKPGQSPKLLIYYASNRYTGVPDRFTGGGYGTDFTLTINSMQAEDAAFYYCQRLYNSPFTFGSGTKLEIK | 110 ± 5 | 211 ± 24 | 356 ± 41 | 574 ± 59 | 1054 ± 104 | 1441 ± 139 | 1821 ± 175 | did not inhibit tumor growth
